Results taken from patent US20050170334A1.

Columns and labels:
[1] = molecular target: NM12 (influenza A virus); assay: ELISA, peptide coated, antibody 10 µg/ml
[2] = molecular target: CM14 (influenza A virus); assay: ELISA, peptide coated, antibody 10 µg/ml
[3] = molecular target: CM16 (influenza A virus); assay: ELISA, peptide coated, antibody 10 µg/ml
[4] = molecular target: NM11 (influenza A virus); assay: ELISA, peptide coated, antibody 10 µg/ml
[5] = molecular target: M2 peptide (extracellular 23-amino-acid M2 peptide) (influenza A virus); assay: ELISA, peptide coated, antibody 10 µg/ml
[6] = molecular target: CM15 (influenza A virus); assay: ELISA, peptide coated, antibody 10 µg/ml
[7] = molecular target: NM13 (influenza A virus); assay: ELISA, peptide coated, antibody 10 µg/ml
[8] = molecular target: NM16 (influenza A virus); assay: ELISA, peptide coated, antibody 10 µg/ml
[9] = molecular target: CM17 (influenza A virus); assay: ELISA, peptide coated, antibody 10 µg/ml
[10] = molecular target: CM13 (influenza A virus); assay: ELISA, peptide coated, antibody 10 µg/ml
[11] = molecular target: NM17 (influenza A virus); assay: ELISA, peptide coated, antibody 10 µg/ml
[12] = molecular target: CM12 (influenza A virus); assay: ELISA, peptide coated, antibody 10 µg/ml
[13] = molecular target: M2 expressed on A/HK/8/68 infected MDCK cells (influenza A virus A/HK/8/68); assay: cell-based ELISA, infected MDCK cells
[14] = molecular target: NM14 (influenza A virus); assay: ELISA, peptide coated, antibody 10 µg/ml
[15] = molecular target: M12 (influenza A virus); assay: ELISA, peptide coated, antibody 10 µg/ml

B1: L66 (antibody, V domains shown)
VH: EVQLVESGGGVVRPGGSLRLSCAASGFTFDDYGMSWVRQAPGKGLEWVSGINWNGGSTGYADSVKGRFTISRDNAKNSLYLQMNSLRAEDTALYYCARDRVTMVRGVIMDYYGMDVWGQGTTVTVSS
VL: QTVVTQEPSLTVSPRGTVTLTCSSSTGAVTSGYYPGWFQLKPGQAPMSLIYSARKKHSWTPARFSGSLLGGKAALTLSGVQPEDEAEYYCLLYYGGAYVFGTGTKVTVLG
ELISA (OD450) [1]: 0.12 OD450 | ELISA (OD450) [2]: 0.08 OD450 | ELISA (OD450) [3]: 0.09 OD450 | ELISA (OD450) [4]: 0.09 OD450 | ELISA (OD450) [5]: 0.51 OD450 | ELISA (OD450) [6]: 0.09 OD450 | ELISA (OD450) [7]: 0.13 OD450 | ELISA (OD450) [8]: 1.04 OD450 | ELISA (OD450) [9]: 0.12 OD450 | ELISA (OD450) [10]: 0.08 OD450 | ELISA (OD450) [11]: 0.99 OD450 | ELISA (OD450) [12]: 0.08 OD450 | EC50 [13]: 0.229 µg/mL

B2: C40G1 (antibody, V domains shown)
VH: QLQLQESGPGLVKPSETLSLTCTVSGGSISSSFYYCGWIRQPPGKGLEWIGSIYYRGSTYYNPSLKSRVTISVDTSKNQFSLKLSSVTAADTAVYYCARRVTMVRGVKGDYFDYWGQGTLVTVSS
VL: DIQMTQSPSSLSASVGDRVTITCRASQGISSWLAWYQQKPEKVPKSLIYAASSLQSGVPSRFSGSGSGTDFTLTISSLQPEDFATYYCQQYNYYPLTFGGGTKVEIKR
ELISA (OD450) [1]: 0.12 OD450 | ELISA (OD450) [14]: 2.49 OD450 | ELISA (OD450) [2]: 0.1 OD450 | ELISA (OD450) [3]: 0.76 OD450 | ELISA (OD450) [15]: 2.71 OD450 | ELISA (OD450) [6]: 0.11 OD450 | ELISA (OD450) [7]: 2.41 OD450 | ELISA (OD450) [9]: 2.78 OD450 | ELISA (OD450) [10]: 0.11 OD450 | ELISA (OD450) [12]: 0.1 OD450
